Data as given in publication doi:10.1101/2025.08.13.670122.
Like-named read-outs stand apart in the source and are kept apart here. Values belong to the substance of their own block, whether it stands above or below them.

Experiments:
[1] = target: human Angiotensin II Type 1 receptor (human) (UniProt P30556)
[2] = target: human Angiotensin II Type 1 receptor (human) (UniProt P30556); remark: listed apart in the source
[3] = target: human Angiotensin II Type 1 receptor (human) (UniProt P30556); remark: listed apart in the source
[4] = target: human Angiotensin II Type 1 receptor (human) (UniProt P30556); remark: listed apart in the source
[5] = target: human Angiotensin II Type 1 receptor (human) (UniProt P30556); remark: listed apart in the source
[6] = target: human Angiotensin II Type 1 receptor (human) (UniProt P30556); remark: listed apart in the source
[7] = target: human Angiotensin II Type 1 receptor (human) (UniProt P30556); assay: radioligand binding

human Angiotensin II Type 1 receptor (human), sequence (P30556 whole entry): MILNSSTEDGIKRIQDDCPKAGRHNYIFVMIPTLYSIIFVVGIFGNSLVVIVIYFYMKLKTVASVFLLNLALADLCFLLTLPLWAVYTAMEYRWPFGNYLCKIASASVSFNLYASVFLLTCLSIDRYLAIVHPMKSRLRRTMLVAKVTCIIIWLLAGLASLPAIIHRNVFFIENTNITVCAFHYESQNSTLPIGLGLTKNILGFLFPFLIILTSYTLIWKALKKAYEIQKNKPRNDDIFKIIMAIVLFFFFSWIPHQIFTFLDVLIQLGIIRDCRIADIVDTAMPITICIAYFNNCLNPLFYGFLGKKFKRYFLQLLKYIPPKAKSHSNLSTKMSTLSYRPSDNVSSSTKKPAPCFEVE

Ki [1]: 0.23 nM
Substance: AngII analog 11 (Tyr(Me) at position 8) (from UniProt P01019)

Gαq activation (GABY BRET sensor, HEK293 cells expressing AT1R), EC50 [2]: 1.1 nM
β-arrestin2 recruitment (BRET, HEK293 cells expressing AT1R), EC50 [2]: 0.36 nM
Substance: AngII analog 11 (Tyr(Me) at position 8) (peptide)

Gαq activation (GABY BRET sensor, HEK293 cells expressing AT1R), EC50 [2]: > 10000 nM
β-arrestin2 recruitment (BRET, HEK293 cells expressing AT1R), EC50 [2]: 2.5 nM
Substance: AngII analog 12 (Tyr(Bzl) at position 8) (peptide)

β-arrestin2 recruitment (BRET, HEK293 cells expressing AT1R), EC50 [2]: 15 nM
Substance: AngII analog 13 (Bip at position 8) (peptide)

β-arrestin2 recruitment (BRET, HEK293 cells expressing AT1R), EC50 [2]: 26 nM
Substance: AngII analog 14 (p-tBuPhe at position 8) (peptide)

Gαq activation (GABY BRET sensor, HEK293 cells expressing AT1R), EC50 [2]: 7.9 nM
Substance: AngII analog 15 (Dip at position 8) (peptide)

Gαq activation (GABY BRET sensor, HEK293 cells expressing AT1R), EC50 [2]: > 10000 nM
Substance: AngII analog 16 (Ser(Bzl) at position 8) (peptide)

Gαq activation (GABY BRET sensor, HEK293 cells expressing AT1R), EC50 [3]: 14 nM
Substance: AngII analog 20 (4ThzAla at position 8) (peptide)

Gαq activation (GABY BRET sensor, HEK293 cells expressing AT1R), EC50 [4]: 4.4 nM
Substance: AngII analog 22b ((m-NO2)Phe at position 8) (peptide)

Gαq activation (GABY BRET sensor, HEK293 cells expressing AT1R), EC50 [5]: > 10000 nM
β-arrestin2 recruitment (BRET, HEK293 cells expressing AT1R), EC50 [5]: < 2.5 nM
Substance: AngII analog 23a ((o-CN)Phe at position 8) (peptide)

Gαq activation (GABY BRET sensor, HEK293 cells expressing AT1R), EC50 [4]: 5.9 nM
Substance: AngII analog 23b ((m-CN)Phe at position 8) (peptide)

Gαq activation (GABY BRET sensor, HEK293 cells expressing AT1R), EC50 [6]: 2.1 nM
Substance: AngII analog 24a ((o-OH)Phe at position 8) (peptide)

Gαq activation (GABY BRET sensor, HEK293 cells expressing AT1R), EC50 [4]: 4.6 nM
Substance: AngII analog 24b ((m-OH)Phe at position 8) (peptide)

Gαq activation (GABY BRET sensor, HEK293 cells expressing AT1R), EC50 [4]: 4.5 nM
Substance: AngII analog 27b ((m-I)Phe at position 8) (peptide)

Gαq activation (GABY BRET sensor, HEK293 cells expressing AT1R), EC50 [4]: 1.9 nM
Substance: AngII analog 28b ((m-Br)Phe at position 8) (peptide)

Gαq activation (GABY BRET sensor, HEK293 cells expressing AT1R), EC50 [4]: 1.5 nM
Substance: AngII analog 29b ((m-Cl)Phe at position 8) (peptide)

Gαq activation (GABY BRET sensor, HEK293 cells expressing AT1R), EC50 [4]: 2.5 nM
Substance: AngII analog 29c ((p-Cl)Phe at position 8) (peptide)

Gαq activation (GABY BRET sensor, HEK293 cells expressing AT1R), EC50 [6]: 1 nM
Substance: AngII analog 30a ((o-F)Phe at position 8) (peptide)

Gαq activation (GABY BRET sensor, HEK293 cells expressing AT1R), EC50 [4]: 2.4 nM
Substance: AngII analog 30b ((m-F)Phe at position 8) (peptide)

Gαq activation (GABY BRET sensor, HEK293 cells expressing AT1R), EC50 [4]: 1.7 nM
Substance: AngII analog 30c ((p-F)Phe at position 8) (peptide)

Ki [7]: 6.6 nM
Substance: TRV027 (peptide)
